According to article PMC5997990:

Tests used:
[1] = biological target: T7 helicase-primase gp4A' (wild-type helicase) (bacteriophage T7) (UniProt P03692); test: single-molecule optical trapping (DNA unzipping force); helicase and DNAP in solution with a tethered forked dsDNA, 2 mM dTTP; after helicase unwound ~1000 bp under 9 pN the remaining DNA was unzipped mechanically at 2000 bp/s; a force-rise above the naked DNA baseline shows protein bound across the fork junction; 50 mM Tris-HCl pH 7.5, 40 mM NaCl, 10% glycerol; 25 ± 1 °C
[2] = biological target: T7 helicase-primase gp4A' (wild-type helicase) (bacteriophage T7) (UniProt P03692)

“T7 DNA polymerase (gp5/trx complex), exo- gp5 (D5A, D7A) with E. coli thioredoxin (from UniProt P00581 1-704; P0AA25 1-109)” showed a peak of the force-rise [1] of 26 pN, a percent of traces with a force-rise above the naked DNA baseline [1] of 75% and a replication re-initiation efficiency after collision with a stalled E. coli TEC, normalised against the TEC formation efficiency [2] of 15%. It also gave a traces that passed a stalled co-directional E. coli TEC and went over to unwinding with leading-strand synthesis, 0.5 mM dNTP each, 5 pN [2] of 12%.
